Experimental data taken from article doi:10.1101/2023.08.08.552518.

Biological target: human alpha-thrombin (human, UniProt P00734;P00734 328-363;364-622)
Test: BLI

B1: TBA-Bt (structured_DNA)
DNA: GGTTGGTGTGGTTGG
B1 was tested. Which Kd did it give?
Its Kd is 114 nM.

B2: ISD-Bt (structured_DNA)
DNA: TCACTGTGGTTGGTGTGGTTGGTTTTTTTTTTTTACAGTG
How did the Kd turn out when B2 was run?
The Kd was 246 nM.
